Laboratory results reported in patent US20060122105A1, “Method of improing the growth performance of an animal” (priority 2001, published 2006).

Experiments:
Type in all cases: in vivo
[1] = tested on: Actinobacillus pleuropneumoniae (App); assay: App challenge of pigs, prophylactic recombinant IL-1ra, plasmid IL-1ra or flunix (Example 5); settings: day 13 after challenge compared with pre-challenge levels; FIG. 35
[2] = tested on: haemorrhagic E. coli; assay: Haemorrhagic E. coli challenge of weaner pigs, prophylactic treatment (Example 3); settings: for reduction of E. coli culture score at post-mortem compared to saline: FIG. 19
Experimental: Male weaner pigs, with a mean weight of 5.4 kg were allocated to groups of 8, with the mean weight being equalised between groups. Pigs were housed in group pens containing a replicate from each treatment group. Pigs were provided with pelleted feed and water ad libitum.
Pigs were treated with recombinant saline, IL-1ra or the antibiotic, Apralan, and challenged with E. coli according to the schedule outlined in Table 3. Saline, or 200 μg of IL-1ra were delivered intramuscularly in 1 ml doses. Apralan was delivered orally according to manufacturer's instructions at a dose of 12 mg/kg. E. coli challenges were delivered orally in an 8 ml dose containing 10^8 cfu/ml. Blood was sampled from pigs by venipuncture at −2 days, day 0, and +6 days from initial challenge with E. coli as outlined in Table 3. Blood was assayed for immunological parameters including white blood cell number, differential cell counts, lymphocyte subset enumeration, IgG levels and cytokine production. Pigs were weighed at day −2 and at the end of the trial on day 6.
Faecal samples were taken from each pig daily for 5 days from day 2 to day 6 after challenge; these samples were cultured on sheep blood agar to quantify E. coli load. Growth on sheep blood agar was scored from 0 to 5 (where 0 was no growth, 1 signified growth in the primary inoculum, 2 signified growth in the first streak, 3 signified growth in the 2nd streak, 4 signified growth in the 3rd streak, and 5 signified growth of E. coli in the final streak). The condition of faeces was noted as normal, wet or diarrhoea, as an indication of clinical signs.
At the conclusion of the experiment on day 7, pigs were euthanased and swabs were taken from different areas in the gastro-intestinal tract, including the small intestine (25%, 50% and 75% along the length of the small intestine), the caecum and colon, and from the faeces in situ. These post-mortem swabs were cultured on sheep blood agar to quantify E. coli load as described above.

[3] = Growth performance of pigs treated with IL-1ra or saline at zero, reduced and normal antibiotic medication (Example 2); settings: for total group weight at the end of the weaner phase: FIG. 10
Experimental: Recombinant porcine IL-1ra was expressed in E. coli and purified using a polyhis tag system. IL-1ra was tested for biological activity in a bioassay prior to the start of the experiment.
The experiment was undertaken in a commercial environment where the pigs were weaned at 28 days of age. All injections were 1 ml. There were 16 pigs per treatment, 8 males and 8 females per treatment. The mean weight of treatment groups were similar at the start of the experiment.
A. Saline injection, 1 ml IM neck muscle.
B. 100 ug IL-1ra injection, 1 ml IM neck muscle. Injections were administered twice weekly during the weaner stage, and weekly throughout the grower and finisher stages.
Pigs were weaned and weighed at the commencement of the experiment (D0, W0). Weights were recorded weekly throughout the weaner phase (W0-W6), during the grower phase (W9), at the end of the grower phase (W13), during the finisher phase (W 16) and at the end of the finisher phase prior to slaughter at W19. Blood samples were collected at the start of the experiment and at the end of the weaner phase, grower phase and finisher phase. Haematology and immunological analyses were performed. At slaughter, carcass characteristics including P2 backfat measurements and dressed carcass weight were noted.

[4] = tested on: Actinobacillus pleuropneumoniae (App); assay: App challenge of pigs, prophylactic low or high doses of IL-1ra or IL-1ra+IL-4 (Table 8); settings: for rate of gain: last 10 days of challenge, FIG. 44
Experimental: Blood was sampled from pigs by venipuncture at −24 h, +0 h, +24 h and +3 weeks from challenge. Blood was assayed for immunological parameters as previously described. Pigs were weighed at day −1, day 10 and at 3 weeks.

[5] = tested on: Actinobacillus pleuropneumoniae (App); assay: App challenge of pigs, therapeutic IL-1ra at low and high doses or Excenel (Example 7); settings: for feed consumed: FIG. 52
Experimental: Male pigs with a mean starting weight of 34.6 kg, were allocated to 4 treatment groups of 9 pigs each. Treatments were saline, IL-1ra at 2 μg per kg, IL-1ra at 10 μg per kg and Excenel, the current clinical treatment for App infection. Pigs were housed in pens of 3 pigs, with 3 replicates of each. Pigs were provided with pelleted feed and water ad libitum. The starting weights of each treatment group and each pen were equal prior to the start of the trial.
Pigs were anaesthetised and infected intratracheally with 7.5×10^5 pfu on day 0. Recombinant IL-1ra and saline were administered as 2ml doses, given subcutaneously behind the ear. Excenel was administered to pigs according to the manufacturer's instructions. Pigs were treated with IL-1ra, saline or Excenel at 24 h, 48 h and one week after challenge with App.
Blood was sampled from pigs by venipuncture at 0 h, 24 h, 48 h, 1 week and 2 weeks after infection. Blood was assayed for immunological parameters as previously described. Pigs were weighed the day prior to challenge, and days 6 and 13 after challenge.

B1: IL-1ra: Recombinant porcine IL-1ra expressed in E. coli and purified using a polyhis tag system (protein, UniProt Q29056 26-177, looked up)
Interleukin-1 receptor …: HPLGKRPCRMQAFRIWDVNQKTFYLRNNQLVAGYLQGPNTKLEEKIDVVPVEPHFVFLGIHGGKLCLSCVKSGDEMKLQLDAVNITDLRKNSEQDKRFTFIRSDSGPTTSFESAACPGWFLCTALEADQPVGLTNTPKAAVKVTKFYFQQDQ
modifications: polyhistidine tag
notes: Recombinant porcine IL-1ra expressed in E. coli and purified using a polyhis tag system
In the case of B1, the “levels of TNFα protein in the serum” value [1] is reported as “reduced levels of TNFα”, the “decrease in faecal shedding, faecal scores tallied over the entire challenge period, compared to saline treated controls” value ([2]; 5 days after E. coli challenge, FIG. 15) is reported as 37% and the “recorded cases of wet faeces and diarrhoea (clinical signs)” value ([2]; 5 days after E. coli challenge, FIG. 16) is reported as “fewer recorded cases of wet faeces and diarrhoea”. The “group mean total E. coli culture score, all gut areas at post-mortem” value ([2]; FIG. 20) was “less than 10 out of a possible 30”, the “reduction of E. coli culture score at post-mortem compared to saline” value (“reduction of E. coli culture score” for short) ([2]; anterior part of the small intestine) was 71% and the “reduction of E. coli culture score” value ([2]; caecum) was 39%. For the same molecule, the “reduction of E. coli culture score” value ([2]; colon) was 44%, the “reduction in clinical signs compared to saline controls” value ([2]; faecal condition, FIG. 17) was 64% and the “days on which bacterial shedding was significantly less than saline treated controls” value ([2]; faecal cultures) was 3/5. For the same molecule, the “reduction of E. coli culture score” value ([2]; faeces in situ) was 23%, the “reduction of E. coli culture score” value ([2]; mid small intestine) was 51% and the “reduction in E. coli in the hindgut area (caecum and colon) compared to saline controls” value ([2]; post-mortem, FIG. 23) was 42%. The “reduction of bacterial load in the small intestine (foregut) compared with saline controls” value ([2]; post-mortem, FIG. 23) was 55%, the “reduction of E. coli culture score” value ([2]; posterior small intestine) was 47% and the “reduction in the amount of E. coli in the gastro-intestinal tract compared to saline controls” value ([2]; total culture scores at post-mortem, FIG. 21) was 45%. The “period of reduced bacterial shedding in faeces after challenge” value ([2]; vs saline, FIG. 14) was “day 2 through to day 4”, the “Change compared to saline treated controls: Change in clinical signs” value ([2]; ↓ (decrease)) was 63.6% and the “Change compared to saline treated controls: Change on faecal bacterial load” value ([2]; ↓ (decrease)) was 36.5%. For the same molecule, the “Change compared to saline treated controls: E. coli at post-mortem” value ([2]; ↓ (decrease)) was 44.6%, the “Change compared to saline treated controls: E. coli in foregut” value ([2]; ↓ (decrease)) was 55.4% and the “Change compared to saline treated controls: E. coli in hindgut” value ([2]; ↓ (decrease)) was 41.7%. For the same molecule, the “Change compared to saline treated controls: Presence of bacterial shedding in faeces” value ([2]; ↓ (decrease)) was 3 days, the “weight at the end of the weaner phase” value ([3]; 100 ug IL-1ra, all 3 levels of medication, FIG. 8) was “weighed more than their saline treated counterparts” and the “P2 backfat levels at slaughter” value ([3]; IL-1ra in absence of antibiotics, FIG. 13) was “comparable to those of pigs treated with saline and provided full antibiotic medication”. The “finishing weight, more than saline treated pigs” value ([3]; absence of antibiotic medication, FIG. 12) was 16.7%, the “number of pigs experiencing weight loss or mortality over the weaner period” value ([3]; absence of antibiotics, FIG. 9) was 2 out of 16 pigs and the “total group weight at the end of the weaner phase” value (from here on “total group weight at the end”) ([3]; full medication) was 451 kg. For the same molecule, the “total group weight at the end” value ([3]; no medication) was 369 kg, the “increase in productivity (group weight vs saline)” value (from here on “increase in productivity”) ([3]; normal antibiotic administration) was 11.1% and the “increase in productivity” value ([3]; reduced antibiotic administration) was 20.4%. For the same molecule, the “total group weight at the end” value ([3]; reduced medication) was 390 kg, the “weight at the end of the grower phase” value ([3]; regardless of medication level, FIG. 11) was “heavier than all the saline treatment” and the “deleterious effects of continuous administration” value ([3]; twice weekly in weaner stage, weekly in grower and finisher stages) was “did not have any deleterious effects”. For the same molecule, the “increase in productivity” value ([3]; zero antibiotic administration) was 26.4%, the “improved growth compared to saline treated controls” value ([4]; 21 days of App challenge, low and high doses, FIG. 46) was 13.5% and the “amount of lung affected by App lesions” value ([4]; high dose, FIG. 47) was “reduced the amount of lung affected by App lesions”. For the same molecule, the “production of the pro-inflammatory cytokine IL-8 (mRNA in lung tissue)” value ([4]; high dose, FIG. 49) was “greatly reduced”, the “increase in rate of gain vs saline” value ([4]; high dose, first 10 days of App challenge, FIG. 43) was > 100 g/day and the “degree of pleurisy seen at post-mortem” value ([4]; high doses, FIG. 48) was “reduced”. For the same molecule, the “production of TNFα (mRNA in lung tissue)” value ([4]; high doses, FIG. 50) was “inhibited”, the rate of gain ([4]; high doses) was 1170 g/day and the “weight gained during the 21-day challenge period” value ([4]; low and high doses, FIG. 45) was 17.9 kg. The rate of gain ([4]; low doses) was 1250 g/day, the feed consumed ([5]; IL-1ra at high dose (10 μg per kg)) was 1.8 kg of feed per day and the “weight gained in the second week of challenge” value ([5]; IL-1ra at low dose (2 μg per kg), Excenel per manufacturer's instructions, FIG. 51) was 5.7 kg. For the same molecule, the feed consumed ([5]; IL-1ra at low dose (2 μg per kg), Excenel per manufacturer's instructions) was 1.7 kg of feed per day, the “production of IL-8 in the caudal-mediastinal lymph nodes” value ([5]; low dose IL-1ra, Excenel, compared to saline treated controls) was “reduced the production of IL-8” and the “feed conversion ratio (FCR, feed:gain)” value ([5]; low dose IL-1ra, FIG. 53) was 1.6. The “proliferative responses of lymphocytes in the presence of killed App” value ([5]; low dose IL-1ra, FIG. 54) was “tended to have improved proliferative responses of lymphocytes” and the “production of the pro-inflammatory cytokine IL-8 in lung tissue (mRNA at post-mortem)” value ([5]; low doses, compared to other treatments, FIG. 55) was “reduced the production”.
